B1: Azoarcus group I ribozyme (parent)
chain: GUGCCUUGCGCCGGGAAACCACGCAAGGGAUGGUGUCAAAUUCGGCGAAACCUAAGCGCCCGCCCGGGCGUAUGGCAACGCCGAGCCAAGCUUCGGCGCCUGCGCCGAUGAAGGUGUAGAGACUAGACGGCACCCACCUAAGGCAAACGCUAUGGUGAAGGCAUAGUCCAGGGAGUGGCGAAAGUCACACAAACCGG

In the series the parent is B1. The series is described as follows: reverse-splicing fitness (ratio to wild type); higher = more active; in vitro selection; Mg2+ level not given. In a few lines:
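An in vitro group I ribozyme library with randomized positions was T7-transcribed and gel-purified. In triplicate, 10 pmol RNA in EPPS pH 7.5 was reacted with 50 pmoles of a 30-nt RNA substrate for 1 h at 37 °C across several added MgCl2 levels (1–48 mM), then stopped with EDTA. Products were reverse transcribed from a substrate-complementary primer, PCR-amplified and sequenced (HiSeq 4000). Fitness is a variant's read proportion after selection over that before, normalised to wild type.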
Consider C82A A111C A145U C169U U176C, for which the reverse-splicing fitness was 0.0144. With C82A A111C A145U C169U U176G the figure was 0.00718; with C82A A111C A145U C169U U176A, 0.0149; with C82A A111C C150G U176C, 0.0124.

In the case of C82A A111C C150G U176G, the reverse-splicing fitness worked out at 0.00364. With C82A A111C C150G U176A the figure was 0.0084; with C82A A111C A120U A145U C169G U176G, 0.00259; with C82A A111C A120U A145U C169G U176C, 0.00308. Under C82A A111C A120U C150G C169A U176G stands 0.00319.

C82A A111C A120U C150G C169A U176C: the reverse-splicing fitness was determined as 0.00597.

Take C82A A111C A120U C150G C169A U176A: the reverse-splicing fitness amounted to 0.00579.

For C82A A111C A120U C150A U176A, the reverse-splicing fitness was 0.00497. Under C82A A111C A120U C150A U176G stands 0.00369. For the variant C82A A111C A120U C150A U176C, the reverse-splicing fitness was 0.00738. Under C82A A111C A145C C150G C169A U176G stands 0.00742; under C82A A111C A145C C150G C169A U176A, 0.00837; under C82A A111C A145C C150G C169A U176C, 0.00911. With C82A A111C A145C C150A C169U U176A the figure was 0.0138; with C82A A111C A145C C150A C169U U176G, 0.00856; with C82A A111C A145C C150A C169U U176C, 0.0109. Under C82A A111G A120C A145C C150A C169A stands 0.00989; under C82A A111C A120U C150A C169G U176G, 0.00295; under C82A A111C A120U C150A C169G U176C, 0.00395. As for C82A A111C A120U C150A C169G U176A, the reverse-splicing fitness was 0.00598.

Consider C82A A111C C150A C169A, for which the reverse-splicing fitness turned out to be 0.00979. With C82A A111C C150A C169U, the reverse-splicing fitness stood at 0.0131.

With C82A A111C C150A C169G, the reverse-splicing fitness was 0.00835. As to C82A A111C A145C, the reverse-splicing fitness came to 0.212.

On to C82A A111C A145G, for which the reverse-splicing fitness came to 0.258. With C82A A111C A145U the figure was 0.229; with C82A A111C A120U C150U U176C, 0.0107.

As for C82A A111C A120U C150U U176G, the reverse-splicing fitness was found to be 0.00381.

As to C82A A111C A120U C150U U176A, the reverse-splicing fitness came out at 0.00771. Under C82A A111C A145U C150U C169U U176A stands 0.0172; under C82A A111C A145U C150U C169U U176C, 0.0144; under C82A A111C A145U C150U C169U U176G, 0.00857. With C82A A111C A120U C150G C169G U176A the figure was 0.00439; with C82A A111C A120U C150G C169G U176C, 0.00343; with C82A A111C A120U C150G C169G U176G, 0.00279. With C82A A111C A145C U176C the figure was 0.0878; with C82A A111C A145C U176A, 0.0639; with C82A A111C A145C U176G, 0.0188. As to C82A A111C A145U C150U C169A U176A, the reverse-splicing fitness was 0.014. With C82A A111C A145U C150U C169A U176G the figure was 0.00861.

Take C82A A111C A145U C150U C169A U176C: the reverse-splicing fitness stood at 0.0146. Under C82A A111C A120U C169G U176A stands 0.00421; under C82A A111C A120U C169G U176G, 0.00234; under C82A A111C A120U C169G U176C, 0.00315. With C82A A111C A145U C150A the figure was 0.0227. In the case of C82A A111C A145U C150G, the reverse-splicing fitness stood at 0.0181. With C82A A111C A145U C150U, the reverse-splicing fitness turned out to be 0.135. Consider C82A A111C A145U C150G C169A, for which the reverse-splicing fitness came to 0.0091.

In the case of C82A A111C A145U C150G C169G, the reverse-splicing fitness was found to be 0.00748. Under C82A A111C A145U C150G C169U stands 0.00887. C82A A111C A145C C169U: the reverse-splicing fitness stood at 0.0124. Consider C82A A111C A145C C169G, for which the reverse-splicing fitness is 0.00923.

On to C82A A111C A145C C169A, for which the reverse-splicing fitness came out at 0.00711. Under C82A A111C A120U C150A C169U stands 0.00635; under C82A A111C A120U C150A C169G, 0.00503; under C82A A111C A120U C150A C169A, 0.00599.

C82A A111C A145C C150A C169G U176G: the reverse-splicing fitness turned out to be 0.00943. Under C82A A111C A145C C150A C169G U176A stands 0.0264; under C82A A111C A145C C150A C169G U176C, 0.0219. As to C82A A111C C150A, the reverse-splicing fitness is 0.0239. Under C82A A111C C150U stands 0.113; under C82A A111C C150G, 0.016; under C82A A111C C169U U176A, 0.0162. Under C82A A111C C169U U176C stands 0.0187; under C82A A111C C169U U176G, 0.00856. Under C82A A111C A120U C150G U176C stands 0.00623. C82A A111C A120U C150G U176G: the reverse-splicing fitness was 0.00249. With C82A A111C A120U C150G U176A the figure was 0.00392; with C82A A111C A145U C169A U176C, 0.0156; with C82A A111C A145U C169A U176A, 0.0138. As to C82A A111C A145U C169A U176G, the reverse-splicing fitness came to 0.0095.

With C82A A111G A120C A145C, the reverse-splicing fitness turned out to be 0.0362.

For the variant C82A A111C A145G C150U C169G U176C, the reverse-splicing fitness amounted to 0.0162.

In the case of C82A A111C A145G C150U C169G U176A, the reverse-splicing fitness turned out to be 0.0115. With C82A A111C A145G C150U C169G U176G the figure was 0.00687; with C82A A111C A145U C150G C169A U176C, 0.0117; with C82A A111C A145U C150G C169A U176A, 0.0098. With C82A A111C A145U C150G C169A U176G the figure was 0.00861. With C82A A111G the figure was 0.435.

The values above are taken from the RNAGym collection of RNA variant scans (doi:10.1093/molbev/msab373).
